pKd: −log10 of the molar value.
Molecular target: T1, LmrR (Lactococcus lactis) (UniProt A2RI36)
T1 sequence: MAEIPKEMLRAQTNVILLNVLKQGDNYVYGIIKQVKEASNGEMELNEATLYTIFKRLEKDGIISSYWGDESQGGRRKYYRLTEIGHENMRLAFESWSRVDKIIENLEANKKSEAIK
Assay: NMR titration
Settings: apo; apparent Kd per base pair; DNA is a fragment pool; 10 mM NaPi pH 6.8, 100 mM NaCl, 25 C (ITC; same buffer for NMR); 5% DMSO in riboflavin titrations

sonicated E. coli genomic DNA
pKd: 4.43
